No end group written: not given here.
Target: growth factor receptors
Assay: cell-based or functional assay

Binder | p-Smad1/5/8 (%)
NDEGLECVPTEERPVQVRKIRIKPHQGQKKATVFLQHNK (not fully specified) [GFR-binding compound of SEQ ID NO: 64] | 36
VPEKMSSLSILFFDENKNVVLKVYPNMAVS (not fully specified) [GFR-binding compound of SEQ ID NO: 73] | 44
VPARLSPISILYIDAANNVVYKQYEDM (not fully specified) [GFR-binding compound of SEQ ID NO: 74] | 51
VPQALSPINMLYFNEKNQIIYGKIPFLQHNK (not fully specified) [GFR-binding compound of SEQ ID NO: 75] | 54
TPTKMSPINMLYFNEKNNIIYGKIPGMVVD (not fully specified) [GFR-binding compound of SEQ ID NO: 76] | 55
APTQLSAISTLYLEIVRKKPLKNYQFLQHNK (not fully specified) [GFR-binding compound of SEQ ID NO: 77] | 52
APTQLSAISTLYLEIVRKKPLKNYQEMEDH (not fully specified) [GFR-binding compound of SEQ ID NO: 78] | 58
NDEGLECVPTEERPVQVRKIRIKPHQGQKKATVFLQHNK (not fully specified) [GFR-binding compound of SEQ ID NO: 79] | 27
ASASPSSVPQDLEPLTILYYVGRTPKVEQLSNMVEDH (not fully specified) [GFR-binding compound of SEQ ID NO: 80] | 34
RNVQCRPTQLEPLPIVYYEIVRKKPEQLSNTLEDHLA (not fully specified) [GFR-binding compound of SEQ ID NO: 81] | 41
VPTKLSPISILYIDKMGVPTYKQYEEGMSVAE (not fully specified) [GFR-binding compound of SEQ ID NO: 82] | 35
ASASPSSVPQDLEPLTILYYVGRTPKVEQLSNMV (not fully specified) [GFR-binding compound of SEQ ID NO: 65] | 38
VPARLSPISILYIDEMGVPTYKQYEEGMSVAE (not fully specified) [GFR-binding compound of SEQ ID NO: 83] | 33
VPTEESNITTQIMRIKPHQGQHIGEMSFLQH (not fully specified) [GFR-binding compound of SEQ ID NO: 84] | 22
VPQALSPISILFIRLKPHQGHLGEMSNMVVR (not fully specified) [GFR-binding compound of SEQ ID NO: 85] | 26
APTKLEPLPMVYYEERRNVIEQLSNNMVVR (not fully specified) [GFR-binding compound of SEQ ID NO: 86] | 34
VPTKLSAISTLYLDLAREEPLKNYQEMVVE (not fully specified) [GFR-binding compound of SEQ ID NO: 87] | 38
APTKLEPLTIVYYDDSSNVIEQLSNNMVVR (not fully specified) [GFR-binding compound of SEQ ID NO: 88] | 32

Binder | p-Smad1/5/8 (%)
VPQALSPISILFIVGRKPKVYKQYEMIVERS (not fully specified) [GFR-binding compound of SEQ ID NO: 89] | 41
VPTELSPISILFIVGGKPKVYKQYENMVVE (not fully specified) [GFR-binding compound of SEQ ID NO: 90] | 36
SRVHHNAISTLYFDESSNVILKKYRGMSVVE (not fully specified) [GFR-binding compound of SEQ ID NO: 91] | 56
VPEKMSSLSILFFDENKNAALKVYPNMTVE (not fully specified) [GFR-binding compound of SEQ ID NO: 92] | 52
RNVQCRPTQLEPLPIVYYEIVRKKPEQLSNTLEDHLA (not fully specified) [GFR-binding compound of SEQ ID NO: 66] | 38
VPARLSPISILYIDAANNVVYKQYEDMVKS (not fully specified) [GFR-binding compound of SEQ ID NO: 93] | 44
TPTKMSPINMLYFNEKNNIIYGKIPGM (not fully specified) [GFR-binding compound of SEQ ID NO: 94] | 41
RNVQCRPTQLEPLPIVYYEIVRKKPEQLSNTLE (not fully specified) [GFR-binding compound of SEQ ID NO: 95] | 29
VPTHHSAISTLYLELAGEKPLKNYQFLQHNK (not fully specified) [GFR-binding compound of SEQ ID NO: 96] | 47
VPTHHSAISMLYLELGGDKPLENYQFLQ (not fully specified) [GFR-binding compound of SEQ ID NO: 97] | 46
VSQDLSAISTLYLKIVRKEPLKNYQEMVEE (not fully specified) [GFR-binding compound of SEQ ID NO: 98] | 39
VPTKLSPISILYIDDMGVPTYKQYEEGMSVAE (not fully specified) [GFR-binding compound of SEQ ID NO: 67] | 40
VPQALSPISILYIDDMGVPTYKQYEEGMSVAE (not fully specified) [GFR-binding compound of SEQ ID NO: 68] | 39
VPTEESNITTQIMRIKPHQGQHIGEMSFLQH (not fully specified) [GFR-binding compound of SEQ ID NO: 69] | 32
VPTELSPISILFIRIKPHQGHLGEMSAAVVE (not fully specified) [GFR-binding compound of SEQ ID NO: 70] | 30
TQVQLEPLTLLYYDENEKVIEQLSNDMVVE (not fully specified) [GFR-binding compound of SEQ ID NO: 71] | 47
VPQALNAISTLYFDDSSNVILKKYRNMAVS (not fully specified) [GFR-binding compound of SEQ ID NO: 72] | 48

Source: US20190224279A1, “PHARMACEUTICAL ASSOCIATION COMPRISING A GROWTH FACTOR RECEPTOR AGONIST CONJUGATED TO A BIOACTIVE CARRIER FOR CONVERTING A NEOPLASTIC CELL INTO A NON-NEOPLASTIC CELL AND USES THEREOF” (HISTIDE AG, priority 2015, published 2019)
